According to the supplement of paper PMC5998384:

Tests used:
HeLa Kyoto [1] = assay: solubility in G1/S (NP-40 vs SDS abundance) (log2 ratio); higher = more soluble; settings: cell cycle stage: G1/S
HeLa Kyoto [2] = assay: solubility change mitosis vs G1/S (difference of NP-40 vs SDS log2 ratios) (log2 ratio difference); higher = more soluble in mitosis
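Wherever solubility change mitosis vs G1/S (difference of NP-40 vs SDS log2 ratios) is given: synchronized HeLa Kyoto cells (double thymidine block for G1/S, nocodazole release for mitosis), protein amounts in NP-40 versus SDS lysates quantified by mass spectrometry, three biological replicates.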
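Wherever solubility in G1/S (NP-40 vs SDS abundance) is given: HeLa Kyoto cells arrested at G1/S by double thymidine block, proteins quantified by TMT10plex mass spectrometry in mild NP-40 versus SDS extracts, three biological replicates.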

Row | Sequence | solubility in G1/S (log2) (HeLa Kyoto [1]) | solubility change mitosis (log2) (HeLa Kyoto [2])
1 | MPQKDPCQKQACEIQKCLQANSYMESKCQAVIQELRKCCAQYPKGRSVVCSGFEKEEEENLTRKSASK [CMC4] | -1.4 | 0.221
2 | MDPDPQAGVQVGMRVVRGVDWKWGQQDGGEGGVGTVVELGRHGSPSTPDRTVVVQWDQGTRTNYRAGYQGAHDLLLYDNAQIGVRHPNIICDCCKKHGLRGMRWKCRVCLDYDLCTQCYMHNKHELAHAFDRYETAHSRPVTLSPRQGLPRIPLRGIFQGAKVVRGPDWEWGSQDGGEGKPGRVVDIRGWDVETGRSVASVTWADGTTNVYRVGHKGKVDLKCVGEAAGGFYYKDHLPRLGKPAELQRRVSADSQPFQHGDKVKCLLDTDVLREMQEGHGGWNPRMAEFIGQTGTVHRITDRGDVRVQFNHETRWTFHPGALTKHHSFWVGDVVRVIGDLDTVKRLQAGHGEWTDDMAPALGRVGKVVKVFGDGNLRVAVAGQRWTFSPSCLVAYRPEEDANLDVAERARENKSSLSVALDKLRAQKSDPEHPGRLVVEVALGNAARALDLLRRRPEQVDTKNQGRTALQVAAYLGQVELIRLLLQARAGVDLPDDEGNTALHYAALGNQPEATRVLLSAGCRADAINSTQSTALHVAVQRGFLEVVRALCERGCDVNLPDAHSDTPLHSAISAGTGASGIVEVLTEVPNIDVTATNSQGFTLLHHASLKGHALAVRKILARARQLVDAKKEDGFTALHLAALNNHREVAQILIREGRCDVNVRNRKLQSPLHLAVQQAHVGLVPLLVDAGCSVNAEDEEGDTALHVALQRHQLLPLVADGAGGDPGPLQLLSRLQASGLPGSAELTVGAAVACFLALEGADVSYTNHRGRSPLDLAAEGRVLKALQGCAQRFRERQAGGGAAPGPRQTLGTPNTVTNLHVGAAPGPEAAECLVCSELALLVLFSPCQHRTVCEECARRMKKCIRCQVVVSKKLRPDGSEVASAAPAPGPPRQLVEELQSRYRQMEERITCPICIDSHIRLVFQCGHGACAPCGSALSACPICRQPIRDRIQIFV [MIB2] | -0.12 | -0.0211
3 | MADPVAGIAGSAAKSVRPFRSSEAYVEAMKEDLAEWLNALYGLGLPGGGDGFLTGLATGTTLCQHANAVTEAARALAAARPARGVAFQAHSVVPGSFMARDNVATFIGWCRVELGVPEVLMFETEDLVLRKNEKSVVLCLLEVARRGARLGLLAPRLVQFEQEIERELRAAPPAPNAPAAGEDTTETAPAPGTPARGPRMTPSDLRNLDELVREILGRCTCPDQFPMIKVSEGKYRVGDSSLLIFVRVLRSHVMVRVGGGWDTLEHYLDKHDPCRCSSTAHRPPQPRVCTFSPQRVSPTTSPRPASPVPGSERRGSRPEMTPVSLRSTKEGPETPPRPRDQLPPHPRSRRYSGDSDSSASSAQSGPLGTRSDDTGTGPRRERPSRRLTTGTPASPRRPPALRSQSRDRLDRGRPRGAPGGRGAQLSVPSPARRARSQSREEQAVLLVRRDRDGQHSWVPRGRGSGGSGRSTPQTPRARSPAAPRLSRVSSPSPELGTTPASIFRTPLQLDPQQEQQLFRRLEEEFLANARALEAVASVTPTGPVPDPARAPDPPAPDSAYCSSSSSSSSLSVLGGKCGQPGDSGRTANGLPGPRSQALSSSSDEGSPCPGMGGPLDAPGSPLACTEPSRTWARGRMDTQPDRKPSRIPTPRGPRRPSGPAELGTWHALHSVTPRAEPDSWM [GAS2L1] | 0.282 | 0.169
4 | MPKRSCPFADVAPLQLKVRVSQRELSRGVCAERYSQEVFEKTKRLLFLGAQAYLDHVWDEGCAVVHLPESPKPGPTGAPRAARGQMLIGPDGRLIRSLGQASEADPSGVASIACSSCVRAVDGKAVCGQCERALCGQCVRTCWGCGSVACTLCGLVDCSDMYEKVLCTSCAMFET [SIVA1] | -0.0737 | -0.098
5 | MPLSSPNAAATASDMDKNSGSNSSSASSGSSKGQQPPRSASAGPAGESKPKSDGKNSSGSKRYNRKRELSYPKNESFNNQSRRSSSQKSKTFNKMPPQRGGGSSKLFSSSFNGGRRDEVAEAQRAEFSPAQFSGPKKINLNHLLNFTFEPRGQTGHFEGSGHGSWGKRNKWGHKPFNKELFLQANCQFVVSEDQDYTAHFADPDTLVNWDFVEQVRICSHEVPSCPICLYPPTAAKITRCGHIFCWACILHYLSLSEKTWSKCPICYSSVHKKDLKSVVATESHQYVVGDTITMQLMKREKGVLVALPKSKWMNVDHPIHLGDEQHSQYSKLLLASKEQVLHRVVLEEKVALEQQLAEEKHTPESCFIEAAIQELKTREEALSGLAGSRREVTGVVAALEQLVLMAPLAKESVFQPRKGVLEYLSAFDEETTEVCSLDTPSRPLALPLVEEEEAVSEPEPEGLPEACDDLELADDNLKEGTICTESSQQEPITKSGFTRLSSSPCYYFYQAEDGQHMFLHPVNVRCLVREYGSLERSPEKISATVVEIAGYSMSEDVRQRHRYLSHLPLTCEFSICELALQPPVVSKETLEMFSDDIEKRKRQRQKKAREERRRERRIEIEENKKQGKYPEVHIPLENLQQFPAFNSYTCSSDSALGPTSTEGHGALSISPLSRSPGSHADFLLTPLSPTASQGSPSFCVGSLEEDSPFPSFAQMLRVGKAKADVWPKTAPKKDENSLVPPAPVDSDGESDNSDRVPVPSFQNSFSQAIEAAFMKLDTPATSDPLSEEKGGKKRKKQKQKLLFSTSVVHTK [RNF10] | -0.172 | -0.000862
6 | MKFAYRFSNLLGTVYRRGNLNFTCDGNSVISPVGNRVTVFDLKNNKSDTLPLATRYNVKCVGLSPDGRLAIIVDEGGDALLVSLVCRSVLHHFHFKGSVHSVSFSPDGRKFVVTKGNIAQMYHAPGKKREFNAFVLDKTYFGPYDETTCIDWTDDSRCFVVGSKDMSTWVFGAERWDNLIYYALGGHKDAIVACFFESNSLDLYSLSQDGVLCMWQCDTPPEGLRLKPPAGWKADLLQREEEEEEEEDQEGDRETTIRGKATPAEEEKTGKVKYSRLAKYFFNKEGDFNNLTAAAFHKKSHLLVTGFASGIFHLHELPEFNLIHSLSISDQSIASVAINSSGDWIAFGCSGLGQLLVWEWQSESYVLKQQGHFNSMVALAYSPDGQYIVTGGDDGKVKVWNTLSGFCFVTFTEHSSGVTGVTFTATGYVVVTSSMDGTVRAFDLHRYRNFRTFTSPRPTQFSCVAVDASGEIVSAGAQDSFEIFVWSMQTGRLLDVLSGHEGPISGLCFNPMKSVLASASWDKTVRLWDMFDSWRTKETLALTSDALAVTFRPDGAELAVATLNSQITFWDPENAVQTGSIEGRHDLKTGRKELDKITAKHAAKGKAFTALCYSADGHSILAGGMSKFVCIYHVREQILMKRFEISCNLSLDAMEEFLNRRKMTEFGNLALIDQDAGQEDGVAIPLPGVRKGDMSSRHFKPEIRVTSLRFSPTGRCWAATTTEGLLIYSLDTRVLFDPFELDTSVTPGRVREALRQQDFTRAILMALRLNESKLVQEALEAVPRGEIEVVTSSLPELYVEKVLEFLASSFEVSRHLEFYLLWTHKLLMLHGQKLKSRAGTLLPVIQFLQKSIQRHLDDLSKLCSWNHYNMQYALAVSKQRGTKRSLDPLGSEEEAEASEDDSLHLLGGGGRDSEEEMLA [PWP2] | -1.72 | 0.632
7 | MPLPEPSEQEGESVKAGQEPSPKPGTDVIPAAPRKPREFSKLVLLTASDQDEDGVGSKPQEVHCVLSLEMAGPATLASTLQILPVEEQGGVVQPALEMPEQKCSKLDAAAPQSLEFLRTPFGGRLLVLESFLYKQEKAVGDKVYWKCRQHAELGCRGRAITRGLRATVMRGHCHAPDEQGLEARRQREKLPSLALPEGLGEPQGPEGPGGRVEEPLEGVGPWQCPEEPEPTPGLVLSKPALEEEEAPRALSLLSLPPKKRSILGLGQARPLEFLRTCYGGSFLVHESFLYKREKAVGDKVYWTCRDHALHGCRSRAITQGQRVTVMRGHCHQPDMEGLEARRQQEKAVETLQAGQDGPGSQVDTLLRGVDSLLYRRGPGPLTLTRPRPRKRAKVEDQELPTQPEAPDEHQDMDADPGGPEFLKTPLGGSFLVYESFLYRREKAAGEKVYWTCRDQARMGCRSRAITQGRRVTVMRGHCHPPDLGGLEALRQREKRPNTAQRGSPGGPEFLKTPLGGSFLVYESFLYRREKAAGEKVYWTCRDQARMGCRSRAITQGRRVMVMRRHCHPPDLGGLEALRQREHFPNLAQWDSPDPLRPLEFLRTSLGGRFLVHESFLYRKEKAAGEKVYWMCRDQARLGCRSRAITQGHRIMVMRSHCHQPDLAGLEALRQRERLPTTAQQEDPEKIQVQLCFKTCSPESQQIYGDIKDVRLDGESQ [FLYWCH1] | -0.557 | 0.409
8 | MKTSPRRPLILKRRRLPLPVQNAPSETSEEEPKRSPAQQESNQAEASKEVAESNSCKFPAGIKIINHPTMPNTQVVAIPNNANIHSIITALTAKGKESGSSGPNKFILISCGGAPTQPPGLRPQTQTSYDAKRTEVTLETLGPKPAARDVNLPRPPGALCEQKRETCADGEAAGCTINNSLSNIQWLRKMSSDGLGSRSIKQEMEEKENCHLEQRQVKVEEPSRPSASWQNSVSERPPYSYMAMIQFAINSTERKRMTLKDIYTWIEDHFPYFKHIAKPGWKNSIRHNLSLHDMFVRETSANGKVSFWTIHPSANRYLTLDQVFKPLDPGSPQLPEHLESQQKRPNPELRRNMTIKTELPLGARRKMKPLLPRVSSYLVPIQFPVNQSLVLQPSVKVPLPLAASLMSSELARHSKRVRIAPKVLLAEEGIAPLSSAGPGKEEKLLFGEGFSPLLPVQTIKEEEIQPGEEMPHLARPIKVESPPLEEWPSPAPSFKEESSHSWEDSSQSPTPRPKKSYSGLRSPTRCVSEMLVIQHRERRERSRSRRKQHLLPPCVDEPELLFSEGPSTSRWAAELPFPADSSDPASQLSYSQEVGGPFKTPIKETLPISSTPSKSVLPRTPESWRLTPPAKVGGLDFSPVQTSQGASDPLPDPLGLMDLSTTPLQSAPPLESPQRLLSSEPLDLISVPFGNSSPSDIDVPKPGSPEPQVSGLAANRSLTEGLVLDTMNDSLSKILLDISFPGLDEDPLGPDNINWSQFIPELQ [FOXM1] | 0.114 | -0.0969
9 | MRVDSSADPTMSQEQGPGSSTPPSSPTLLDALLQNLYDFGGTEGETEQKKIIKKRENKKRDVMASAALAAEPSPLPGSLIRGQRKSASSFFKELREERHCAPSGTPTGPEILAAAVPPSSLKNNREQVEVVEFHSNKKRKLTPDHNKNTKQANPSVLERDVDTQEFNLEKARLEVHRFGITGYGKGKERILEQERAIMLGAKPPKKSYVNYKVLQEQIKEKKAAKEEEKRLAQETDIFKKKKRKGQEDRKSKKKSAPSILSNGRIGQVGKFKNGTLILSPVDIKKINSSRVAK [C1ORF131] | -1.24 | 0.969
